Measured values published in the DeepSol protein solubility set.

Experiment: soluble on expression in E. coli; label from the status in PepcDB or PDB records

Row | Sequence | soluble on expression in E. coli
1 | MSLKEVDLTQEQMKDLNLTYDWYRSYDNAKLNEFLNFVLLNNSDINIARKTLLSALARADLIDYDLYPTLSGNLGFGADKDLNSGKQSKNFNNSLNLSYELDIYGKLRDSASASEFSAKASAYDLENLKISMINTALNDVFELAYFNDVDKLLRAYLSNLEQMKELYNYKYKLGKIEELDLLNIEQSLLRAKQNLLSNDQNRNLLIKNLQDLLARQEGFAYIEYFKTLSLNDFKTLSPDFNIPLKALAYRADVRSKLNSLKSAFKDYSSMQKSILPSISLGGALSGSDKKIDDSFKFEILSGNVKISLPFLDYGRVKQNIKISQFAYEQLLISYEQVLQSAMNEFALNYKDYQSDTLLLQNLQNINIKQELITKAYYEKYILGKSELKDYLDANNTLNSTQQEFLRARFNLLKTINSYYQITALSFNNENLEFPKEGHHHHHH | soluble
2 | MANSAGSMTIFVISDSAGETASKLAAASMAQYPTVDFTLIRRTFVKDEDKLVQALEDAKKAEAMVLHTIINDHLVAIANQFFNEHQLFHFDILTPPVAEIERLTGVAPMREPGALHHLNENYFKRIEAMEFAVKYDDGKDPRGFLEADVLLLGVSRTSKTPLSLFLANKNLKVANLPLIPEAHLPKQLFEMDPKKIVGLTNDPNVLNGIRKERMRAYGLPENTSYSDIEKIRRELAFANDLYQKLGCIVIDVASLSIEETASMILNALNLEDHSYYSTETSEDLEHHHHHH | not soluble
3 | MNFSIRVILLLTGFVSLAFSAPKFLTISDIHYGAENIAKDGQDTGKEFLDVTFKRFEELSQNVDFILHLGDLPTHSLFSIPKKEEYEQVVFHGLHEANPGQKPMFYITGNNDSLLGNYQPFSSDNKSPLNLALDWDGACAYCDGLIIDDTHMRKDGYYSSYVIPNNKEIILIALNSVQWTKTPVFLPKYPNQQRDAFVQLFWLEQQLKNHRAKQLLLAMHVPPGTAYNGNRFWHDIYLDRFLTLLDKYHQSYDQITILFSHSHMEEFRKIRLSDGSTIYAFSTPGISRAHHNNPGMKIFDLDKQMRVRNSTTYYTSDLYEWGNEYYQAMNTPDAIFPNCQNKTIPQCLDTLSPEQVCNNLEVGLFYGVKSTRVPYQGCIKTYQINLEHHHHHH | not soluble
4 | MKRSIAPLLVCPACLPKERPLELTATAEADGDITAGHLSCKGCRRRFPIRDGIAVLLPDPDTGPSGGQWKYEEQGTLATYLWSHFADLAGDPEAGDAYASWASALAGNAETSLDAGCAVGRLTFELGQRSGLAVGFDLSLTFIRAARQLARERQIRFSLPREGNLRDEFRLTLPDCWRTDEVEFVVADALAIPFARETFDRTASLNLIDRVSYPLAHLYEMNRVARLSGASFLLSDPFSWSTANAPEEKWLGGTESGPYSGRGMDNVKAILGGKEAIIAPPWTVAREGSVWWKIRSHRNHFELIRSEFLVAERLEHHHHHH | not soluble
5 | MTMVQVTLEVNGRQVAHEAPPRMHLGDFLRDQARLTGTHLGCEHGVCGACTVLVDGQPVRSCITYAVACEGRQVTTIEGYDGDPVMARLRAAFTKYHALQCGYCTPGMLTTSRDIVLRLPDADEARVRVELSGNLCRCTGYMGIVGAVMSVLRDLREQPDAAVQALRAAAADGRLPAPRGEQPIAFQPFTPSAPAAAQAAPRPAAAASPASGKGNQIVDAFTVPFPAAEVWAFMVDLPAVAACLPGAVIEETDGQRVKGKIAIKFGPMAAAFNGAARLERDEEAMRAVFRGAGQDSLSQSRATGDIAYQVEAVSENETRVKVDLQYALQGPLAQFSRSGLVQDFVRRMIADFGKNVTARLRQPGGEALPQAQFNPVAMFFSVLWMRVKRWFGRGGLEHHHHHH | not soluble
6 | MGSDKIHHHHHHMSVVIEFDKVSRQFVRRQNASTIQERFMGLIRGLPPAEAFWAVRDVSFAVEEGQSIGLVGHNGAGKSTILKLMTRVLEPTSGRVTTQGRIAALLELGSGFHPELSGRENVFLYGSLMGFGRKEMQRKLPEIIEFSEIGPFLDTEVKHYSSGMYTRLAFAVATAVDPDILITDEVLAVGDETFQRKCIDRIYGFRRAGKTIVFVSHALDVVRSLCDVAVWLDHGEMKAYGEAGKVVDAYLADVNERERAEFEERLHSEDDDQIRESRMRRGSREVEITRVQLLDAQGRERITFRTHEPLTIRIHYLAHQRIERPVFGVGINHESGPWLTGPNTGFDKYHIPFIEGAGIIDYHIPRLPFLGGRYLVSASATDSTQLYEFDVHDRMYPLVIHSDGLSQRYGMVFCEGNWSWHG | not soluble
7 | MTERSPLRVGIGGPVGSGKTALTLNLCRALRNKYNMAVVTNDIYTKEDSNFLTRNEAMTPDRIVGVETGGCPHTAIREDASINLAAIDDLCEKFDGLELIIIESGGDNLAATFSPELSDLTLYVIDVAGGEKIPRKGGPGITKSDLLIINKTDLAPMVGANLDVMEQDAKRMRGEKPFLFSNMKTEDGLTQIIEFIEKQGLFKALEHHHHHH | soluble
8 | MVFGENALVLKHLGSNTKIHFNAFDALAGWKQEGLPPVEVPAAAQWKFRSKPSQQVILDYDYTFTTPYCGSEVVEKDKETVEAKANPKGEATLQWENCEDQIDLAALSLKEPILFYDEVVLYEDELADNGVSLLTVKVRVMPSSWFLLLRFWLRVDGVLMRLRETRMHYRFGEDEAPTVLRENCWREATFQSLSAKGYPVDLAVWSDPSSISQRLPVIKHTTQKLKIPSKV | not soluble
9 | MGSDKIHHHHHHMPSLFSLYRKIFFGRKPGWDQQPLPHIKVTAPHVTVSETKVSQYAQVCGFQFDGKVLPPTYLYVMAFRLHAVIFTHDGITFPLLGMIHLKNRIQVYRPVTVDETFSLECALTTSRETDSGLEFEFVSKAFVGEELVWESLSTYLYRIDVAGRRVRPPKAIDMAWETPQSWRLSEDLGRRYAKASGDYNLIHLHPVLSKRFGFDRVLAHGMWSKARCLAELMPSIGDRPFTVDVTFKLPLLMPADVGFGYEQNTDNMVFELRDSKGRRPHLSGDVQF | not soluble
10 | MNLRNGWNIEFQKNIHMYCHRLIATKGDKHYEVPCEDTPAGFVGIWLYGLELDEMTLSDLQAGLVEWAESSGCTYRIYNTRGVYLTNEPHVQADA | not soluble
11 | MAAKNAFYAQSGGVTAVINASAAGVIEAARKQSGKIGRIYAGRNGIIGALTEDLIDTGQESDAAISALRYTPSGAFGSCRYKLKSLEQNRREYERLIEVFKAHDIGYFFYNGGGDSADTCLKVSQLSGTLGYPIQAIHVPKTVDNDLPITDCCPGFGSVAKYIAVSTLEASFDVASMSATSTKVFVLEVMGRHAGWIAAAGGLASSPEREIPVVILFPEISFDKQKFLAKVDSCVKKFGYCSVVVSEGVKGDDGKFLSDQGVRDAFGHAQLGGVAPVVASMVKEGLGLKYHWGVADYLQRAARHIASKTDVEQAYAMGQAAVEFAVQGHNSVMPTIERISARPYQWKVGMAQLSQVANVEKMMPENFITEDGFGITDLCREYLAPLIEGEDYPPYKDGLPDYVRLKNVAVPKKLSGFTL | soluble
12 | MGSDKIHHHHHHMNTDIAKNTNSLNDDKKSNSEQRPYGIVLYGATSFVGQITAHYLAEFLSTSKDASGTTVTWAIAGRDEKKLNELQSKLASKVNIIIANSDDATSLDELTEQTQVIISTVGPYLKYGEPLIKSCVDNGTDYVDLTGEAIFIKDMIDKYQEAAKQSGARIVNSCGFDSIPSDLGVYFTQKQAEAKFDSACDVIHMRVKAAKGGLSGGTIASMATIFEEVGQDKSRRKQVANPYLLNDDKDVPNVRQSNVSKPEYDSEHKRWLAPFVMASINTRIVHRSNQLLGYEYGRDFKYDEAMWMKDGIKGKLTSYALSAGLLGFATAMMITPSRELLSKHVLPKSGSGPSKEEQENGYFDIRLFGKTANKETIATKVTGDKDPGYGSTSRMLSQAALCLAQDISKEAVGGGFWTPASAMGDKLLARLKEHAGLSFDVIDR | not soluble
13 | MAHKGTESKEQIWPYKITIGICAMNRKATSKPMRAIMKKIIDFYGQWVDSFIFPEQVIINEPVENWPLCHCLVSFHSTEFPLEKAIAYVKLRNPYVINNLDRQYDLLDRRTVFKILSDNGIEHPRHGYVIRGRPNEPDTELVEHPDHIEVNGEVFNKPFVEKPISSEDHNVYIYYPSSVGGGSQRLFRKINNRSSWYSPKSEVRKEGSYIYEEFIPADGTDVKVYAVGPFYAHAEARKAPGLDGKVERDSDGKEVRYPVILSNKEKQIAKKIVLAFGQTVCGFDLLRANGKSYVCDVNGFSFVKTSTKYYEDTAKILGNQIVRHYAKSKNWRVPSDMPQPPILDLGLGDDPPMITTPSGKLAELRCVVAVIRHGDRTPKQKMKLIVTDQRFFALFEKYDGYKKHEIKMKKPNQLMEVLELARALVIEKQRDRHQILEKLREGTGEEEIHKSEHDLEVCEEEMKKWEQMRTVLEMYGHFSGINRKVQMKYLKERETKTSDEELRREGPALLLILKWGGELTTAGNMQAEALGRLFRTLYPGIRRTDGKSSPEDTQGLGFLRLHSTYRHDLKIYASDEGRVQTTAAAFAKGLLALEGELTPILMQMVKSANTDGLLDDDCQARLYQTELKRYLHKALQADRDFTPQDYLELNPNGLRAITAAMEFIKNPRKMCHEIAGYVEKMCGVIVEYSQTRPTGSTLYLQESMDLAQRRWNKELREFRRKNKHGEVEFDISKIPDIYDNIKYDMEHNPDLCINNEVEFERMYVCVKNMADIVVPQEYGIKTENKMVIAQRVCTPLLRKIRNDLHRCLENKESEETQTRLDPRASQGIATPFRHVRTRLYFTSESHIHTLMNLIRYGNLCSVDDKKWQRAMNFLSGVTEFNYMTQVVLMVYEDSRKENDEADTGPRFHIEILFSPGLYPCFLTEKERIYETRFNLSTNPKPATSSRSSGRESRDTNDSASSSTEGRRPSIEKVVTVVTPTQLSTPSVTNDDLSISSNAESTAAESTGLVNTTTKTHNDSEDDLNDVESVNLVALDELNNTTKASQRGSFHVTEPIQIDEKTRRYFPYRFKHHTAQLLTGMSGGGVHMQNRLISTDVLTGKFGDHDNKKNSRKDFGAGTAVLSTAVIARSSSAPRLMTYESEDFSVGEIKRFWPPLRSLETLHDSINLSQFDGFLERLIKGALTPLPSPPKTPLPSALSCDAINKTPTQDEVEKVIGKLAPTSSTD | not soluble
14 | MGELTDALLGKGALKTRFGSLLGQGDWGGVRVSQVEVRWVIFCLLHWLHVNLPVTEYLALDVLFPLAIVQKHSIL | not soluble
15 | MGSDKIHHHHHHMSSLEDILALTSALIRYRSTDTRPEERDRCAAHIMRWCDAEDIASSRVDNNGVTSLIIGPASKRAPLLFMAHYDVVEGPDALFQPVLSDSVLKGRGSIDDKYAVALSLVLFRDHLRHLRAQGRSQDDMPLQLLITGDEETGGYDGARHALGHVGAEFCIALDGGSPSTVITKEKGIIDCTLTAHGRAAHGARPWLGTNAVECLMADYMALKRLFPGQDDPTDPIHWHRSLNLGIVRAGSAVNQVPDLATAWLDVRYTEHDDPQALFAAMQESIRGELVATRTEPVFHSGETPWIDRLLACAPGASTGFAHGASDARFLSEHGIPGVVWGAEGETSQHGPDEHLLVDSLDTVHKALAAFVRTAGGTA | not soluble
16 | MGSDKIHHHHHHMKTNIVDVFCIIDDFSKLFDETIKKKTLEEADKKCRNRKFKMSDSEVMTILILFHLSRYRDLKAFYLQYITHSCRSEFPHLVSYNRFVELQSRGGGKLIAFLNMCCLGQCTGISFIDSTPLKVCHIKRAHGHRTMRGWAQKGKSTMGWFYGFKLHIVINDRGEIINYQITPGNCDDREPLKDGTFTKNLFGKLIADRGYISQNLFDRLFVDDIHMITKIKKNMKNSLMHLYDKVLLRKRALIETVNDILKNLCRIEHTRHRSVNNFVTNLISGIIAYNILPKKPELNIEIIRNPNFPISA | not soluble
